# Values quoted from earlier work, collected in patent EP1600162A1, “Shelf-stable formulation of glucagon-like peptide-1” (Eli Lilly & Company, priority 1998, dated 2005).
# Details: stored at 4° C
substance,measurement,value
GLP-1(7-37): GLP-1 molecule affected by dipeptidyl-peptidase IV; background peptide,time after sample preparation at which by-products have been found,eleven
